Values of other authors, collected in article PMC6431256.

Target: tau peptide (Homo sapiens) (UniProt P10636)
Test: ITC

Chain of tau peptide (Homo sapiens) (P10636 2-758): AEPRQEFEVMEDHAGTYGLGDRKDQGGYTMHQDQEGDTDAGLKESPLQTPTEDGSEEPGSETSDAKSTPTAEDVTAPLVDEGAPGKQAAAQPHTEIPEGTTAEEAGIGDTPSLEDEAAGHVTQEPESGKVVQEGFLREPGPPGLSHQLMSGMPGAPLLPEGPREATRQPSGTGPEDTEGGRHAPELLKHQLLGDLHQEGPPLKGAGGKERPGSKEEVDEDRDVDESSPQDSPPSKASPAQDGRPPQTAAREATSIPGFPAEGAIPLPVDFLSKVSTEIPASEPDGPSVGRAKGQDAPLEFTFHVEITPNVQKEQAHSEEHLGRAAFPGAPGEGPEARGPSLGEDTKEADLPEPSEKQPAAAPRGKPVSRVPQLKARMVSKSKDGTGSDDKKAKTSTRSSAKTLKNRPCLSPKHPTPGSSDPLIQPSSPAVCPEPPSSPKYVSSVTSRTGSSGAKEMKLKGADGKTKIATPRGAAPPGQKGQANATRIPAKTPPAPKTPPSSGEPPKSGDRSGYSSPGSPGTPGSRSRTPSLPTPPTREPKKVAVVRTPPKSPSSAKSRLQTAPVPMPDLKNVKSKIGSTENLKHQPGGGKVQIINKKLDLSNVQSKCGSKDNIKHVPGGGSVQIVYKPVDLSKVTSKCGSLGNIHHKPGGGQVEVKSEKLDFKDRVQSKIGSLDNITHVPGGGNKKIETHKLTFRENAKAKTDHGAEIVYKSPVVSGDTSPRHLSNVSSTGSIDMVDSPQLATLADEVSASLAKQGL
Chain of Pin1 (Q13526 whole entry): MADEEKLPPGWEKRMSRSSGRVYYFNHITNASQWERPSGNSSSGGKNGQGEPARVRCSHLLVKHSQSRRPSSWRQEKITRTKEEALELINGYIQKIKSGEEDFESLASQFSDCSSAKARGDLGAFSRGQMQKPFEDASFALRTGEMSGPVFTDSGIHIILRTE

Kd: 200 µM
Substance: Pin1 (from UniProt Q13526)
